# Test results: article PMC3394778, “Ubiquitylation of Terminal Deoxynucleotidyltransferase Inhibits Its Activity” (PLoS ONE, 2012)
# B1: His-UbcH5a (wild type) (enzyme)
# chain: not shown
# notes: UbcH5a (ubiquitin-conjugating enzyme E2), human; cDNA amplified from a human thymus cDNA library; also called His-wtUbcH5a; wtUbcH5a; source: E. coli BL21(DE3), purified (Ni Sepharose 6 Fast Flow)
# B2: GST-UbcH5a (enzyme)
# chain: not shown
# notes: UbcH5a (ubiquitin-conjugating enzyme E2), human; cDNA amplified from a human thymus cDNA library; also called GST-Ubc5a; source: E. coli BL21(DE3), purified (Glutathione Sepharose 4B)
# B3: GST-TdT (terminal deoxynucleotidyltransferase) (natural protein)
# chain: MDPLCTASSGPRKKRPRQVGASMASPPHDIKFQNLVLFILEKKMGTTRRNFLMELARRKGFRVENELSDSVTHIVAENNSGSEVLEWLQVQNIRASSQLELLDVSWLIESMGAGKPVEITGKHQLVVRTDYSATPNPGFQKTPPLAVKKISQYACQRKTTLNNYNHIFTDAFEILAENSEFKENEVSYVTFMRAASVLKSLPFTIISMKDTEGIPCLGDKVKCIIEEIIEDGESSEVKAVLNDERYQSFKLFTSVFGVGLKTSEKWFRMGFRSLSKIMSDKTLKFTKMQKAGFLYYEDLVSCVTRAEAEAVGVLVKEAVWAFLPDAFVTMTGGFRRGKKIGHDVDFLITSPGSAEDEEQLLPKVINLWEKKGLLLYYDLVESTFEKFKLPSRQVDTLDHFQKCFLILKLHHQRVDSSKSNQQEGKTWKAIRVDLVMCPYENRAFALLGWTGSRQFERDIRRYATHERKMMLDNHALYDKTKRVFLKAESEEEIFAHLGLDYIEPWERNA
# notes: Terminal deoxynucleotidyltransferase (TdT), bovine; cDNA isolated from a bovine thymus cDNA library; wild type; source: E. coli BL21(DE3)pLysS Rosetta2, purified (Glutathione Sepharose 4B)
# B4: His-UbcH6 (enzyme, human, UniProt P51965 1-193, looked up)
# chain: MSDDDSRASTSSSSSSSSNQQTEKETNTPKKKESKVSMSKNSKLLSTSAKRIQKELADITLDPPPNCSAGPKGDNIYEWRSTILGPPGSVYEGGVFFLDITFTPEYPFKPPKVTFRTRIYHCNINSQGVICLDILKDNWSPALTISKVLLSICSLLTDCNPADPLVGSIATQYMTNRAEHDRMARQWTKRYAT
# notes: UbcH6 (E2), human; cDNA amplified from a human thymus cDNA library; source: E. coli BL21(DE3), purified (Ni Sepharose 6 Fast Flow)
# B5: His-UbcH10 (enzyme, human, UniProt O00762 1-179, looked up)
# chain: MASQNRDPAATSVAAARKGAEPSGGAARGPVGKRLQQELMTLMMSGDKGISAFPESDNLFKWVGTIHGAAGTVYEDLRYKLSLEFPSGYPYNAPTVKFLTPCYHPNVDTQGNICLDILKEKWSALYDVRTILLSIQSLLGEPNIDSPLNTHAAELWKNPTAFKKYLQETYSKQVTSQEP
# notes: UbcH10 (E2), human; cDNA amplified from a human thymus cDNA library; source: E. coli BL21(DE3), purified (Ni Sepharose 6 Fast Flow)
# B6: Ubc13/MMS2 (His-UbcH13 with His-MMS2) (complex)
# chain 1: MAGLPRRIIKETQRLLAEPVPGIKAEPDESNARYFHVVIAGPQDSPFEGGTFKLELFLPEEYPMAAPKVRFMTKIYHPNVDKLGRICLDILKDKWSPALQIRTVLLSIQALLSAPNPDDPLANDVAEQWKTNEAQAIETARAWTRLYAMNNI
# chain 2: not shown
# notes: UbcH13 (Ubc13, E2), human; cDNA amplified from a human thymus cDNA library; MMS2, E2 variant that lacks the active cysteine, human; The two chains were expressed and purified separately; also called UbcH13-MMS2; source: E. coli BL21(DE3), each purified (Ni Sepharose 6 Fast Flow)
# Legend:
# Conditions in all cases: both partners purified
# GST-TdT (terminal …) = target: B3; assay: pull-down; GST-TdT coupled to Glutathione Sepharose 4B as bait, His-tagged proteins added for 1 h (coupling at 4°C); binding buffer A: 50 mM Tris-HCl pH 7.4, 150 mM NaCl, 2.5 mM MgCl2, 1% TritonX-100, 10% glycerol, 1 mM DTT; immunoblot with anti-His; Figure 2A with or without His-Ub
# His-TdT del 2 (150–509) = target: T1, His-TdT del 2 (150–509) (bovine, UniProt P06526 150-509); assay: pull-down; GST-UbcH5a coupled to Glutathione Sepharose 4B as bait, His-TdT deletion mutants as prey; binding buffer A: 50 mM Tris-HCl pH 7.4, 150 mM NaCl, 2.5 mM MgCl2, 1% TritonX-100, 10% glycerol, 1 mM DTT; immunoblot with anti-His
# T1 construct: also called C-terminal region of TdT; source: E. coli BL21(DE3)pLysS Rosetta2, purified (Ni Sepharose 6 Fast Flow)
# His-UbcH5b = target: T2, His-UbcH5b (human, UniProt P62837 1-147); assay: pull-down; GST-TdT coupled to Glutathione Sepharose 4B as bait, His-tagged proteins added for 1 h (coupling at 4°C); binding buffer A: 50 mM Tris-HCl pH 7.4, 150 mM NaCl, 2.5 mM MgCl2, 1% TritonX-100, 10% glycerol, 1 mM DTT; immunoblot with anti-His; Figure 2A with or without His-Ub
# T2 construct: UbcH5b (E2), human; cDNA amplified from a human thymus cDNA library; also called UbcH5 isoforms; source: E. coli BL21(DE3), purified (Ni Sepharose 6 Fast Flow)
binder,measurement,setting,value
B1,binding result,GST-TdT (terminal …),binds
B2,binding result,His-TdT del 2 (150–509),binds
B3,binding result,His-UbcH5b,binds
B4,binding result,GST-TdT (terminal …),binds
B5,binding result,GST-TdT (terminal …),binds
B6,binding result,GST-TdT (terminal …),binds
